For 2 substances, stoichiometry N results are on record in publication doi:10.1101/484048.

Like-named read-outs stand apart in the source and are kept apart here.

Assay [1] deals with human methylmalonyl-CoA epimerase p.Arg143Cys variant (human) (UniProt Q96PE7). Description: crystal structure.
The target in assay [2] is human methylmalonyl-CoA epimerase, wild type (human) (UniProt Q96PE7). Description: crystal structure.
Assay [3] has the same target.

In the case of “human methylmalonyl-CoA epimerase p.Arg143Cys variant (from UniProt Q96PE7 45-176) (enzyme)”, the stoichiometry N (in general, a count of units in the complex or per binding partner) in assay [1] came to 2.

Consider “human methylmalonyl-CoA epimerase, wild type (from UniProt Q96PE7 45-176) (enzyme)”, for which the stoichiometry N in assay [2] and in assay [3] was 2 in each case.
